Here are results for two molecules from paper PMC9181159, “High Nitric Oxide Concentration Inhibits Photosynthetic Pigment Biosynthesis by Promoting the Degradation of Transcription Factor HY5 in Tomato”.

The target in the data set is T1, HY5 (LONG HYPOCOTYL 5) (Solanum lycopersicum, UniProt Q9SM50 1-158).
T1 sequence: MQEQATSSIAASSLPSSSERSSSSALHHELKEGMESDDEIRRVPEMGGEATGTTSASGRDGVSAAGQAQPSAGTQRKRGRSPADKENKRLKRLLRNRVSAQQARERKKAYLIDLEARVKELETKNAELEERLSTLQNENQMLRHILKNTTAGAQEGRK
In words: EMSA; no GSNO; LightShift Chemiluminescent EMSA Kit, 20 min at room temperature, 6% native polyacrylamide gel; buffer, salt and pH not stated. As to conditions: protein: recombinant; tags: His (pET-32a fusion); chain copies: 2; label: biotin 3' end; blunt. A general note: In EMSA bound probe runs differently from free probe, usually more slowly.

B1: PORC-wt probe (dsDNA)
DNA 1: CAAAATGCAACACGTGATGTATGAAT
DNA 2: ATTCATACATCACGTGTTGCATTTTG
Consider B1, for which the binding result is “binds”.

B2: PSY2-wt probe (dsDNA)
DNA 1: CTGTGATTTACACGTGTCCTCTTTAT
DNA 2: ATAAAGAGGACACGTGTAAATCACAG
Take B2: the binding result is “binds”.
